From US20210130452A1 (Merck KGaA, published 2021)
Values joined by “and” are separate entries in the source; they are usually repeats but may differ in a detail not shown here. Equal entries are not always repeated.

Assays:
mouse IL-17A = target: T1, mouse IL-17A (mouse, UniProt Q62386 26-158); assay: ELISA, coated IL-17A
T1 sequence (looked up): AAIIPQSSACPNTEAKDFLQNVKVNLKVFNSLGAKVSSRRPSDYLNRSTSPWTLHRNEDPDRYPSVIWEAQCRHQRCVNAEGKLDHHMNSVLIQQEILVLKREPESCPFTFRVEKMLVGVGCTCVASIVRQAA
Protocol: (§1) Binding of a selected panel of anti-IL-17 Nanobodies to IL-17 of other species was assessed using a binding ELISA. […] HRP (horseradish peroxidase) conjugated anti-myc (Serotec, MCA 2200P) was used for detection using esTMB as substrate.

marmoset IL-17A = target: T2, marmoset IL-17A (marmoset, IL-17A is a disulfide-linked homodimer. One chain is given.); assay: ELISA, coated IL-17A
T2 chain: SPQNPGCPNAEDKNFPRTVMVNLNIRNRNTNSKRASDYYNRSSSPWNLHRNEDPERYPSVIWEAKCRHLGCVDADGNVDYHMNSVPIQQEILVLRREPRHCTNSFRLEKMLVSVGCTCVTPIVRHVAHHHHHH
Protocol: as §1

rat IL-17A = target: T3, rat IL-17A (rat, UniProt Q61453 18-150, limits assumed); assay: ELISA, coated IL-17A
T3 sequence (looked up): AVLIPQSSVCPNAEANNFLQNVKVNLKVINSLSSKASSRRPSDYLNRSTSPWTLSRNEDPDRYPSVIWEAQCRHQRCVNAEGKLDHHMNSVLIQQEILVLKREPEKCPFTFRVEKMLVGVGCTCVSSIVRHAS
Protocol: as §1

guinea pig IL-17A = guinea pig IL-17A (guinea pig); assay: ELISA, coated IL-17A
Protocol: as §1

human IL-17A [1] = target: T4, human IL-17A (human, UniProt Q16552 24-155); assay: ELISA, coated IL-17A
T4 construct: secreted form (GenBank U32659) expressed in Hek293 with C-terminal 6-His; also called hIL-17A; IL-17A-6HIS
Protocol: as §1

rat IL-17F = target: T5, rat IL-17F (rat, UniProt Q5BJ95 29-161); assay: ELISA, coated IL-17F;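 further: binding ELISA on coated antigen from various species, with bound Nanobodies revealed by an HRP-linked anti-myc antibody and esTMB substrate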
T5 sequence (looked up): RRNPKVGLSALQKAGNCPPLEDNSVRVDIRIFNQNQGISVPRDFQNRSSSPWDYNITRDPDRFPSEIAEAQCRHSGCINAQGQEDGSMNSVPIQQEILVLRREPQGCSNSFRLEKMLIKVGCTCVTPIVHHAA
Protocol: as §1

mouse IL-17F = target: T6, mouse IL-17F (mouse, UniProt Q7TNI7 29-161); assay: ELISA, coated IL-17F;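 further: binding ELISA on coated antigen from various species, with bound Nanobodies revealed by an HRP-linked anti-myc antibody and esTMB substrate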
T6 sequence (looked up): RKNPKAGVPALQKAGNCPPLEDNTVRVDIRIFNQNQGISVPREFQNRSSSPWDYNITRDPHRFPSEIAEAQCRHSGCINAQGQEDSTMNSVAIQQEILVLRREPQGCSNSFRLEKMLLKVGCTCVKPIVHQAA
Protocol: as §1

human IL-17A [2] = target: T4, human IL-17A; assay: KinExA, 200 pM Nanobody
human IL-17A [3] = target: T4, human IL-17A; assay: SPR, IL-17A-Nanobody complex over captured IL-17RA
Description: The receptor (IL-17RA or IL-17RC) was captured via its human Fc-tail by an anti-human IgG-Fc antibody coated on the chip.

human IL-17F [4] = target: T7, human IL-17F (human, UniProt Q96PD4 31-163); assay: AlphaScreen IL-17F-IL-17RC; vs IL17MS16A04
T7 construct: made in Hek293 cells (GenBank AF384857); also called hIL-17F; hIL17F
T7 sequence: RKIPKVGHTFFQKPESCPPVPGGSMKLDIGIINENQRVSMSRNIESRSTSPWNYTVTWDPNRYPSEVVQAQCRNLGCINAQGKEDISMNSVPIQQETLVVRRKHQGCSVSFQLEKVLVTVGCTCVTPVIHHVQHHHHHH

Cynomolgus monkey IL-17F [5] = target: T8, Cynomolgus monkey IL-17F (Cynomolgus monkey, UniProt G7P4V0 31-163); assay: cell-based or functional assay
T8 sequence: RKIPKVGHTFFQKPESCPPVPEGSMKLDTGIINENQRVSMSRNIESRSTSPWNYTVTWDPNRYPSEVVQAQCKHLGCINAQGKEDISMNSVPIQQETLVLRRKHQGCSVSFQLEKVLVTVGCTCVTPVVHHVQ

human IL-17F [6] = target: T7, human IL-17F; assay: cell-based or functional assay
Cynomolgus monkey IL-17F [7] = target: T8, Cynomolgus monkey IL-17F; assay: SPR (Biacore) off-rate
human IL-17F [8] = target: T7, human IL-17F; assay: SPR (Biacore) off-rate
[9] = target: T9, human IL-17A/F heterodimer (human, UniProt Q16552 24-155; Q96PD4 31-163, limits assumed); assay: SPR
T9 construct: produced in E. coli, bought from R&D Systems (Cat 5194-IL/CF); also called hIL-17A/F

human IL-17A [10] = target: T4, human IL-17A; assay: SPR
human IL-17F [11] = target: T10, human IL-17F (human, UniProt Q96PD4 31-163); assay: ELISA, coated IL-17F;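 further: binding ELISA on coated antigen from various species, with bound Nanobodies revealed by an HRP-linked anti-myc antibody and esTMB substrate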
T10 construct: GenBank AF384857, expressed in Hek293 as 6-His C-terminal tagged protein; also called hIL-17F; IL-17F-6HIS
T10 sequence: T7 sequence
Protocol: as §1

marmoset IL-17F = target: T11, marmoset IL-17F (marmoset, UniProt A6N6I9 31-163); assay: ELISA, coated IL-17F;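 further: binding ELISA on coated antigen from various species, with bound Nanobodies revealed by an HRP-linked anti-myc antibody and esTMB substrate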
T11 sequence (looked up): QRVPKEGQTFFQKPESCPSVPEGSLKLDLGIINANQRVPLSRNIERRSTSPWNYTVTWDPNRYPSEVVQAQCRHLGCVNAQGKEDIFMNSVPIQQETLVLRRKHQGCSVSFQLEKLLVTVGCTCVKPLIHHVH
Protocol: as §1

human IL-17A [12] = target: T4, human IL-17A; assay: AlphaScreen IL-17A-IL-17RA, average
human IL-17A [13] = target: T4, human IL-17A; assay: KinExA, 600 pM Nanobody
human IL-17A [14] = target: T12, human IL-17A (human, UniProt Q16552 24-155, biotinylated with Sulfo-NHS-LC-Biotin in the AlphaScreen assays only); assay: AlphaScreen competition, hIL-17A - IL-17RA-Fc;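 further: receptor Fc-fusion plus Acceptor and streptavidin Donor beads incubated with the mixture for 1 h at room temperature before reading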
T12 construct: also called hIL-17A; recombinant human IL-17A
Protocol: (§2) To this mixture, the IL-17RA or IL-17RC Fc-fusions, Acceptor beads and the streptavidin Donor beads were added and further incubated for 1 hour at RT.

human IL-17A [15] = target: T12, human IL-17A; assay: cell-based or functional assay
human IL-17A [16] = target: T12, human IL-17A; assay: SPR Biacore, hIL-17A on chip; periplasmic extract (*)
Protocol: (§3) Off-rates of the periplasmic extracts containing anti-IL-17 Nanobodies were measured by Surface Plasmon Resonance (SPR) using a Biacore T100 instrument. […] Periplasmic extracts containing IL-17 neutralizing Nanobodies were injected for 2 minutes at a flow rate of 45 μl/min to allow binding to chip-bound antigen. Next, binding buffer without periplasmic extracts was sent over the chip at the same flow rate to allow spontaneous dissociation of bound Nanobody. From the sensorgrams obtained for the different periplasmic extracts koff-values (k₄) were calculated.

[17] = target: T13, human IL-17A/F heterodimer (human, UniProt Q16552 24-155; Q96PD4 31-163, limits assumed, biotinylated with Sulfo-NHS-LC-Biotin in the AlphaScreen assays only); assay: SPR Biacore, hIL-17A/F on chip; periplasmic extract (*); NB = no binding
T13 construct: also called hIL-17A/F
Protocol: as §3

human IL-17F [18] = target: T14, human IL-17F (human, UniProt Q96PD4 31-163, biotinylated with Sulfo-NHS-LC-Biotin in the AlphaScreen assays only); assay: SPR Biacore, hIL-17F on chip; periplasmic extract (*); NB = no binding
T14 construct: also called hIL-17F; recombinant human IL-17F
T14 sequence: T7 sequence
Protocol: as §3

human IL-17A [19] = target: T12, human IL-17A; assay: AlphaScreen competition, hIL-17A - IL-17RC-Fc;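 further: Read-out after 1 h at room temperature with the receptor Fc-fusion, Acceptor beads and streptavidin-coated Donor beads present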
Protocol: as §2

T4 sequence (Q16552 other isoform, or with tags, fused parts or gaps): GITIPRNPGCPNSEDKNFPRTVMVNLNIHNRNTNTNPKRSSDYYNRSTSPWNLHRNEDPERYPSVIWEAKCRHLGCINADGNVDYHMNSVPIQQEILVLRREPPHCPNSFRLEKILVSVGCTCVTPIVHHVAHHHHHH
T12 sequence (Q16552 other isoform, or with tags, fused parts or gaps): as above
T9 sequence (Q16552 24-155 limits assumed, one chain of several): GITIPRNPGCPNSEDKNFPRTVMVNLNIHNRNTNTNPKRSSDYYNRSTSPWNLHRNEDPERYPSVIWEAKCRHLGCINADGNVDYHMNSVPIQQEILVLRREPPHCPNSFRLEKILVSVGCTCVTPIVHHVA
T13 sequence (Q16552 24-155 limits assumed, one chain of several): as above

B1: 01A01 (VHH)
VHH: EVQLVESGGGLVQAGGSLRLSCAASGFTFDDYDIGWFRQAPGKEREGVSCFTSSDGRTFYADSVKGRFTVSADNAKNTVYLQMNSLEPEDTAVYFCAAVNTFDESAYAAFACYDVVRWGQGTQVTVSS
notes: Class 4
OD (mouse IL-17A): -0.003 OD
OD (marmoset IL-17A): 1.84 OD
OD (rat IL-17A): 0.004 OD
OD (guinea pig IL-17A): 0.008 OD
OD (human IL-17A [1]): 1.83 OD
OD (rat IL-17F): 0.0005 OD
OD (mouse IL-17F): -0.0005 OD
Kd (human IL-17A [2]): 0.0013 nM
% Biacore binding (IL-17A-NB)-IL-17RA (human IL-17A [3]): -1.04%

B2: IL17MS3063 (VHH)
VHH: DVQLVESGGGLVQPGGSLRLSCAASGRTFSSYVVGWFRQAPGKEREFIGAISGSGESIYYAVSEKGRFTISRDNSKNTLYLQMNSLRPEDTAVYYCTADQEFGYLRFGRSEYWGQGTLVTVSS
notes: variant of IL17MS16A04; Kabat numbering
IC50 fold difference vs WT (human IL-17F [4]): 3.7 fold
IC50 cell based assay cyno IL-17F (Cynomolgus monkey IL-17F [5]): 34.2 nM
IC50 cell based assay hIL-17F (human IL-17F [6]): 14 nM
koff (Cynomolgus monkey IL-17F [7]): 0.00111 s⁻¹
koff (human IL-17F [8]): 0.000655 s⁻¹

B3: 04G01 (VHH)
VHH: EVQLVESGGGLVQAGGSQRLSCTASGTIVNIHVMGWYRQAPGKQRELVALIFSGGSADYADSVKGRFTISRDNAKNTVYLEMNSLKAEDTAVYYCAAEIGYYSGGTYYSSEAHWGQGTQVTVSS
notes: Class 2; also called IL17MS04G01
OD (mouse IL-17A): -0.001 OD
OD (marmoset IL-17A): 1.93 OD
OD (rat IL-17A): 0.004 OD
OD (guinea pig IL-17A): 0.008 OD
OD (human IL-17A [1]): 1.9 OD
koff [9]: 0.00023 s⁻¹ and 0.00017 s⁻¹
koff (human IL-17A [10]): 0.00018 s⁻¹ and 0.000116 s⁻¹
OD (human IL-17F [11]): -0.016 OD
OD (marmoset IL-17F): 0.0005 OD
IC50 (human IL-17A [12]): 0.093 nM
% Biacore binding (IL-17A-NB)-IL-17RA (human IL-17A [3]): -0.43%
Kd (human IL-17A [13]): 0.0134 nM

B4: 03B08 (VHH)
VHH: EVQLVESGGGLVQAGGSLRLSCAASGFTFDDYAIGWFRQAPGKEREGVSCISSSDGSIYYADSVKGRFTISSDNAKNTVYLQMNSLKPEDTAVYHCARFGRTGWAEECVDYDYWGQGTQVTVSS
notes: Class 1 Nanobody (anti-IL-17A); not shown: c-myc, His6 tag
IC50 (human IL-17A [14]): 0.08 nM
IL-17A-induced IL-6 production in HT-1080 cells, Emax (human IL-17A [15]): 98.5%
IL-17A-induced IL-6 production in HT-1080 cells, IC50 (human IL-17A [15]): 3.6 nM
koff (human IL-17A [16]): 0.0001 s⁻¹
binding result [17]: no binding
binding result (human IL-17F [18]): no binding
IC50 (human IL-17A [19]): 0.384 nM
